How the values were obtained:
[1] = molecular target: Cx43 expressed in N2a cells (Cx43 gap junction channels); assay: cell-based or functional assay
[2] = molecular target: T1, Recombinant Cx43CT (carboxyl terminal domain of rat connexin43, residues 255-382, preceded by GPLG) (rat, UniProt P08050 255-382); assay: SPR, Cx43CT immobilized, 1:1 Langmuir kinetic fit, pH 6.5 and 7.4
T1 construct: range 255-382; Made in E. coli as a GST fusion (pGEX-6P-2) and cleaved from GST; the protein used was derived from rat cDNA; 15N-labeled for NMR; also called recombinant CT; 15N-Cx43CT
Method: A total of six 12-mer peptides from the non-biased screening (peptides labeled RXP1 to RXP6 in Table 1) and 5 peptides from the biased screening (labeled RXP-A to RXP-E in Table 3) were tested. […] Peptide RXP4 (SEQ ID NO:15) caused the largest deflection in SPR signal. RXP4 (250 μM) was added at time “zero.” Washout was initiated after two minutes of exposure. […] Higher concentrations of the peptide were tested but an asymptotic maximum response could not be detected. In addition, dissociation rates were too fast to reliably use them to calculate the kinetics of binding.
A different result emerged from the testing of the doublets. […] In contrast, peptide RXP-E (SEQ ID NO:10) generated a large, concentration-dependent deflection followed by a slow dissociation upon washout, as shown in FIG. 3B. The transitions were well-fit by exponential functions and the rates of association and dissociation were used as described in Example 4 to estimate the kinetic parameters. A full range of concentrations was tested in three separate occasions and at two different pHs of the solvent (6.5 and 7.4). No differences were observed as a function of pH.

[3] = molecular target: T2, Cx43 from rat heart lysate (rat, UniProt P08050 2-382); assay: Cx43 pulldown assay, percent binding relative to RXPE; Example 19 does not state the source of Cx43
T2 construct: Native protein pulled down from a tissue lysate; also called cardiac Cx43

[4] = molecular target: T1, Recombinant Cx43CT (carboxyl terminal …); assay: SPR, peptide 1.0 mM
[5] = molecular target: T1, Recombinant Cx43CT (carboxyl terminal …); assay: SPR, Cx43CT immobilized on carboxymethyl dextran
Method: Recombinant Cx43CT was covalently bound to a carboxylmethyl dextran matrix (Salamon et al., “Surface Plasmon Resonance Spectroscopy as a Tool for Investigating the Biochemical and Biophysical Properties of Membrane Protein Systems. II: Applications to Biological Systems,” Biochim. Biophys. Acta 1331(2):131-152 (1997), which is hereby incorporated by reference in its entirety). Specific peptides were presented and, when feasible, dissociation constants (KD) were calculated from the time course of binding and unbinding of the ligand, using a 1:1 (Langmuir) association and dissociation kinetic model (Biacore software package). In both phases (association and dissociation), the first 5-8 seconds of recording were not included in the fit, to avoid artifacts resulting from peptide distribution within the flow cells (Lang et al., “Surface Plasmon Resonance as a Method to Study the Kinetics and Amplitude of Protein-protein Binding,” in PRACTICAL METHODS IN CARDIOVASCULAR […] 936-947 (Stefan Dhein, Friedrich Wilhelm Mohr & Mario Delmar eds., 2005), which is hereby incorporated by reference in its entirety).
Phage display allows for the rapid screening of thousands of peptides, but the characteristics of binding cannot be properly defined. Furthermore, the peptides are part of a capsid protein, which may affect the ability of the peptide to properly interact with the target protein. Therefore, some of the peptides identified by the phage screening were selected to, using SPR, further characterize their ability to bind Cx43CT. Recombinant Cx43CT was covalently bound to a carboxymethyl dextran matrix and synthetic peptides presented for binding. A total of six 12-mer peptides from the non-biased screening (peptides labeled RXP1 to RXP6 in Table 1) and 5 peptides from the biased screening (labeled RXP-A to RXP-E in Table 3) were tested. […] Peptide RXP4 (SEQ ID NO:15) caused the largest deflection in SPR signal. RXP4 (250 μM) was added at time “zero.” Washout was initiated after two minutes of exposure.

T1 sequence (P08050 other isoform, or with tags, fused parts or gaps limits assumed): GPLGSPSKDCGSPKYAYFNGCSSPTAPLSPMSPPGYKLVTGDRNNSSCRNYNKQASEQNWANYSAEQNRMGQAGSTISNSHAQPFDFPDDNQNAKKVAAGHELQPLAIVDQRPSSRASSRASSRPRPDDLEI
T2 sequence (P08050 2-382 limits assumed): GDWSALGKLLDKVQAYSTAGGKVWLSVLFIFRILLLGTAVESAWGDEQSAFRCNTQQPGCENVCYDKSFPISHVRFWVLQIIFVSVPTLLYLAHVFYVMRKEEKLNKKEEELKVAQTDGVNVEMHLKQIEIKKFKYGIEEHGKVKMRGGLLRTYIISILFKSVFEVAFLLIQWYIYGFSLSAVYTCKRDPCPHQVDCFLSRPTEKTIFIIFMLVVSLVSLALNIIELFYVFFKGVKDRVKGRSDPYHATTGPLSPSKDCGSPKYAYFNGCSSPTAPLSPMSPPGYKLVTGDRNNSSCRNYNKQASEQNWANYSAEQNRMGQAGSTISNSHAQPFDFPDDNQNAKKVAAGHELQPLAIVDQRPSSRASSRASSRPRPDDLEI

B1: RXP-E (peptide)
peptide: SDDLRSPQLHNGGGSAVPFYSHSHMVRRKPRNPR
notes: Synthetic doublet peptide from the biased phage display screen
Question: Which “junctional conductance (Gj) relative to control at pipette pH 6.2 (acidification-induced uncoupling)” value [1] does the source give for B1 here?
Answer: The value was 57 % of control.

Question: What about the “junctional conductance (Gj) relative to control during octanol superfusion” value [1] of the same binder?
Answer: The value was 57.6 % of control.

Question: What about the Kd [2] of the same binder?
Answer: The Kd was 3.9 µM.

Question: Does SDDLASAQLHNGGGSAVPFYSHSHMVRRKPANAR (also called RXPE mutant (5,7,31,33pa)) [58] bind [3]?
Answer: Result: no binding

Question: Does SDDLRSPQLHNGGGSAVPFYSHSHMVRRKPANAR (also called RXPE mutant (31,33A)) [29] bind [3]?
Answer: Result: no binding

Question: Does SDDLASAQLHNGGGSAVPFYSHSHMVRRKAANPR (also called RXPE mutant (5,7,30,31A)) [31] bind [3]?
Answer: Result: no binding

Question: Which “Response Dose” value [4] does the source give for Ac-RNPRNP-NH2 [Peptide 2501, AcRNPRNP-NH2] here?
Answer: The value was 24.8 arbitrary units.

B2: RXP-A (peptide)
peptide: DVPGRDPGYIKGGGSAHARVPFYSHSLNRNRKPSLYQ
notes: as for B1
Question: Does B2 bind [5]?
Answer: Result: no binding

Question: Which “Response Dose” value [4] does the source give for Ac-RRKPRRKP-NH2 [Peptide 2503, AcRRKPRRKP-NH2] here?
Answer: Its value is 295 arbitrary units.

Question: Which “Response Dose” value [4] does the source give for Ac-RRKP-NH2 [Peptide 2504, AcRRKP-NH2] here?
Answer: The value was 46.5 arbitrary units.

Question: With Ac-RRNP-NH2 [Peptide 2505, AcRRNP-NH2] as the binder, how does the “Response Dose” value [4] read?
Answer: Its value is 34.9 arbitrary units.

B3: RXP-C (peptide)
peptide: GIAAREPNSHDGGGSAHARVPFYSHSRDLWRKPAKSL
notes: as for B1
Question: Does B3 bind [5]?
Answer: Result: no binding

B4: RXP-D (peptide)
peptide: WEEPRRPFTMSGGGSAETHARVPFYSHSPMRHRLPGVHL
notes: as for B1
Question: Does B4 bind [5]?
Answer: Result: no binding

B5: RXP-B (peptide)
peptide: EIQPRSPLMFSGGGSAHARVPFYSHSAKEARWPRAHR
notes: as for B1
Question: Does B5 bind [5]?
Answer: Result: no binding

Source: patent publication US20090075291A1 (RESEARCH FOUNDATION OF STATE UNIVERSITY OF NEW YORK, published 2009)
